Key:
[1] = target: human apolipoprotein E, apoE4 isoform (ε4 allele) (human) (UniProt P02649); experiment: co-IP
[2] = target: prion protein (PrP) (mouse (endogenous in brain of APOE-TR mice)) (UniProt P04925); experiment: velocity sedimentation in a sucrose gradient

Sequence of prion protein (PrP) (P04925 23-230): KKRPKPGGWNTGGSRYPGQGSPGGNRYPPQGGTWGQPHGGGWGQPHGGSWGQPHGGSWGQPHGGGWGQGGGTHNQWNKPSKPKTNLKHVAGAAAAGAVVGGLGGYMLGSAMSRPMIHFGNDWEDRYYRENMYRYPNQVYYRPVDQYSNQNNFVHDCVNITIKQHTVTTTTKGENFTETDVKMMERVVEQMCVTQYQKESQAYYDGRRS
Sequence of human apolipoprotein E, apoE4 isoform (ε4 allele) (human) (P02649 19-317): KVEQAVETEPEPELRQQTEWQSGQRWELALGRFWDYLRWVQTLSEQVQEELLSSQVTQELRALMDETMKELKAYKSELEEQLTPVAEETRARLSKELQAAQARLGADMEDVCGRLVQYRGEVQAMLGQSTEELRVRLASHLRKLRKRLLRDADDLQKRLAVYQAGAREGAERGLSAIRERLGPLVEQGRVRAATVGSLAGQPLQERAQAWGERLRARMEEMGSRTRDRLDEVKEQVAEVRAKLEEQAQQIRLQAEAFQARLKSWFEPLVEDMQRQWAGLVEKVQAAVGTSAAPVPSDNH
Sequence of prion protein (PrP), P04925 23-230 (natural protein; other documents disagree on this pair) (P04925 23-230): as the sequence (P04925 23-230) above

Substance	fold PrP/apoE OD ratio in the immunoprecipitate against ε2/ε2 22L mice [1] [fold]	fold PrP/apoE OD ratio in the immunoprecipitate against ε3/ε3 22L mice [1] [fold]	stoichiometry N [2]
prion protein (PrP) (from UniProt P04925 23-230) (natural protein)	2.8	1.7	–
prion protein (PrP), P04925 23-230 (natural protein; other documents disagree on this pair)	–	–	> 10
